According to patent publication US20240219403A1, “METHODS FOR INHIBITING KRAS ONCOPROTEIN THROUGH ENHANCED GTPASE ACTIVITY” (Memorial Sloan-Kettering Cancer Center, priority 2021, published 2024):

What follows are molecules tested against T1, KRAS^G12C (Homo sapiens, UniProt P01116, G12C) (assay: GTPase assays of purified GTP-loaded KRAS^G12C incubated with GAP proteins (γ-phosphate, α-phosphate, continuous phosphate release)). Details: purified proteins.
T1 construct: endogenous in cells; host or cells: H358, H2122, H2030, SW1573 (KRAS G12C-mutant lung cancer lines, ATCC)
Assay type: biochemical
Experimental: GTP[γ^32P] hydrolysis assay. KRAS proteins (0.5 μg) were reacted with 0.04 μM GTP[γ^32P] (6000 Ci/mmol; PerkinElmer Life Sciences) in 100 μL loading buffer (50 mM HEPES, pH 7.5, 50 mM NaCl, 1 mM DTT, 0.1 mM EGTA, 10 mM EDTA, and 1 mg/mL BSA) for 10 min at 30° C. (5, 40). Loading reactions were stopped by placing on ice and adding MgCl2 to a final concentration of 20 mM. The GTPase assays were performed at 30° C. in 100 μL mixtures containing 20 nM of loaded KRAS and either hydrolysis buffer (25 mM HEPES pH 7.5, 50 mM NaCl, 1 mM DTT, 1 mM MgCl2 and 1 mg/mL BSA) alone, or in combination with WCE or purified RGS3 (0.08-0.4 μg/μL). Equimolar comparisons of NF1, RASA1 and RGS3 were carried out using the continuous hydrolysis assay (see below). Reactions were stopped at the indicated time by filtering through 0.45-μm nitrocellulose membrane filters. The filters were washed 3 times with 0.2 mL of ice-cold hydrolysis buffer, air dried, and processed by autoradiography. Reaction rates were determined by fitting an exponential curve to the data, which was normalized to the baseline value. For the determination of protein stability, the hydrolysis reactions were stopped by boiling at 100° C. for 10 min in Laemmli buffer. The samples were then subjected to SDS-PAGE followed by Coomasie staining (CBB) or immunoblotting with a His-specific antibody.
GTP[α^32P] hydrolysis assay. KRAS proteins were loaded with GTP[α^32P] (3000 Ci/mmol; PerkinElmer Life Sciences) and subjected to the hydrolysis reaction as indicated above. Upon completion of the hydrolysis reaction and immobilization of KRAS-nucleotide complexes on nitrocellulose membranes, the nucleotides were eluted by incubating with elution buffer (50 mM HEPES pH 7.5, 50 mM NaCl, 1 mM DTT, 0.1 mM EGTA, 0.1% SDS, 10 mM EDTA, 1 mM GTP and 1 mM GDP) for 3 min at 85° C. […]
Continuous hydrolysis assay (two-step detection of inorganic phosphate). […] The reaction was monitored by reading the absorbance at 360 nm every 10 to 20 s for ˜16-60 min at room temperature. […]

effect on GTP-hydrolysis by KRAS^G12C | Molecule
enhance the KRAS GTPase activity | RGS4: regulator of G protein signaling 4, RGS family member (protein) MCKGLAGLPASCLRSAKDMKHRLGFLLQKSDSCEHNSSHNKKDKVVICQRVSQEEVKKWAESLENLISHECGLAAFKAFLKSEYSEENIDFWISCEEYKKIKSPSKLSPKAKKIYNEFISVQATKEVNLDSCTREETSRNMLEPTITCFDEAQKKIFNLMEKDSYRRFLKSRFYLDLVNPSSCGAEKQKGAKSSADCASLVPQCA
no measurable effect | RASA1: canonical RAS-GAP (protein) MEKIMPEEEYSEFKELILQKELHVVYALSHVCGQDRTLLASILLRIFLHEKLESLLLCTLNDREISMEDEATTLFRATTLASTLMEQYMKATATQFVHHALKDSILKIMESKQSCELSPSKLEKNEDVNTNLTHLLNILSELVEKIFMASEILPPTLRYIYGCLQKSVQHKWPTNTTMRTRVVSGFVFLRLICPAILNPRMFNIISDSPSPIAARTLILVAKSVQNLANLVEFGAKEPYMEGVNPFIKSNKHRMIMFLDELGNVPELPDTTEHSRTDLSRDLAALHEICVAHSDELRTLSNERGAQQHVLKKLLAITELLQQKQNQYTKTNDVR
some activity | NF1: canonical RAS-GAP; recombinant NF1 GAP related domain (1198-1530aa) (protein, left off: small tags and cut ends) ETVLADRFERLVELVTMMGDQGELPIAMALANVVPCSQWDELARVLVTLFDSRHLLYQLLWNMFSKEVELADSMQTLFRGNSLASKIMTFCFKVYGATYLQKLLDPLLRIVITSSDWQHVSFEVDPTRLEPSESLEENQRNLLQMTEKFFHAIISSSSEFPPQLRSVCHCLYQATCHSLLNKATVKEKKENKKSVVSQRFPQNSIGAVGSAMFLRFINPAIVSPYEAGILDKKPPPRIERGLKLMSKILQSIANHVLFTKEEHMRPFNDFVKSNFDAARRFFLDIASDCPTSDAVNHSLSFISDGNVLALHRLLWNNQEKIGQYLSSNRDHKA
